# Assay results taken from US4771127A (priority 1985, dated 1988).
# Assays:
# [1] = rabbit, in vivo, iv
# specific IgG antibody = system: specific IgG antibody; design: species or system rabbits; conditions: rabbit, in vivo
# mice = conditions: mouse, in vivo, ip
substance,measurement,setting,value
Tetanus Toxoid,Pyrogenicity (highest dose with rise in body temperature ≤ +0.3° C.),[1],50 ug/ml/kg body weight
same,Immunogenicity,specific IgG antibody,Immunogenic
same,Toxicity (class),mice,Nontoxic (key: Nontoxic: a minimum of 50 ug of antigen administered intraperitoneally resulted in no mortality)
